These are literature values, as cited in patent publication US10373702B2, “Water-soluble trans-membrane proteins and methods for the preparation and use thereof” (Massachusetts Institute of Technology, priority 2014, dated 2019).

The target in the data set is SDF1a (Homo sapiens, UniProt P48061). As to conditions: native membrane-bound receptor with SDF1a.
SDF1a, sequence (P48061 22-89 limits assumed, species assumed): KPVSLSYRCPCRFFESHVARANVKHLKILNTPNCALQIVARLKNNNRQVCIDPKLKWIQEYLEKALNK
SDF1a, sequence (P61073 whole entry partner, species assumed): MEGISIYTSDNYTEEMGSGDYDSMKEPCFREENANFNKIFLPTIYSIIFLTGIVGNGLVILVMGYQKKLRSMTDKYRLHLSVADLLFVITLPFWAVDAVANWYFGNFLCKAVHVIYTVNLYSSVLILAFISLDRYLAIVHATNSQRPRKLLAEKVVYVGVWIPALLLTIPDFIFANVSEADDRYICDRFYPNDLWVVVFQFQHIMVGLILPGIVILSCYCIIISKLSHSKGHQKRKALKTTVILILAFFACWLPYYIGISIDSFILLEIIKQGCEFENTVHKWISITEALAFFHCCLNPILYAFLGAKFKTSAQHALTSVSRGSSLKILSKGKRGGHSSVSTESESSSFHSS

B1: CXCR4: native CXC chemokine receptor type 4 isoform a, 356 amino acids (protein)
chain: MSIPLPLLQIYTSDNYTEEMGSGDYDSMKEPCFREENANFNKIFLPTIYSIIFLTGIVGNGLVILVMGYQKKLRSMTDKYRLHLSVADLLFVITLPFWAVDAVANWYFGNFLCKAVHVIYTVNLYSSVLILAFISLDRYLAIVHATNSQRPRKLLAEKVVYVGVWIPALLLTIPDFIFANVSEADDRYICDRFYPNDLWVVVFQFQHIMVGLILPGIVILSCYCIIISKLSHSKGHQKRKALKTTVILILAFFACWLPYYIGISIDSFILLEIIKQGCEFENTVHKWISITEALAFFHCCLNPILYAFLGAKFKTSAQHALTSVSRGSSLKILSKGKRGGHSSVSTESESSSFHSS
In general, Kd refers to the concentration at which binding is half-saturated. For B1, the Kd is about 100 nM.
